The text below walks through data of US20230340064A1 (published 2023).

Test [1] addresses HLA-A1-restricted MAGE-A3EVD-MHC-multimer (MAGE-A3, …; immuneAware) (human). In words: flow cytometry, MHC-multimer staining of TCR-transduced CD8+ T cells. (In general: In flow cytometry, cells or beads pass a laser one at a time.)
Test [2] concerns the target T1, titin peptide on HLA-A*01:01 (human).
T1 peptide: ESDPIVAQY
In words: cytokine release.

The target in test [3] is T2, MAGE-A3 peptide on HLA-A*01:01 (human).
T2 peptide: EVDPIGHLY
In words: multimer staining. An excerpt:
CD8 T cells were isolated from PBMCs of a healthy donor and transduced with three different MAGE-A3-reactive TCRs. Transduced CD8⁺ T cells were enriched by FACS using the constant beta 1 region as a marker for transduction. After expansion of these cells, they were stained either with a MAGE-A3EVD-MHC-multimer (right panel) or antibodies against CD8 and Cß1 (left panel) and analyzed by flow cytometry. Populations were gated on single live cells.
Sequences of TCR-α and TCR-β chains of MAGE-A3-reactive T-cell clones were identified by Next Generation Sequencing and after exchanging the constant TCR regions by their minimal-murinized counterparts cloned into the retroviral vector pES.12-6. For the β chain the Cß1 sequence was used. PBMCs of three healthy donors were isolated by ficoll gradient centrifugation. CD8-positive Cß1-negative T-cells were enriched by negative magnetic selection (Miltenyi) and stimulated in non-tissue culture 24-well plates with plate bound antibodies specific for CD3 and CD28. Amphotropic retroviral particles were produced by transfection of HEK293T cells with the respective TCR encoding retroviral plasmid and two expression plasmids. Three days after stimulation, CD8-positive Cß1-negative T cells were transduced and on day ten enriched for transduced CD8⁺ cells by MACS-separation using the Cβ1 constant beta region as a marker for transduction and then expanded by REP. Transgenic T cells were stained either with an HLA-A1-restricted MAGE-A3EVD-MHC-multimer (MAGE-A3, […]; immuneAware) or antibodies against CD8 and the constant β1 region.

B1: TCR_2 (MAGE-A3-reactive TCR, transgenically expressed on CD8+ T cells) (TCR, V domains shown)
V domain 1: KQEVTQIPAALSVPEGENLVLNCSFTDSAIYNLQWFRQDPGKGLTSLLLIQSSQREQTSGRLNASLDKSSGRSTLYIAASQPGDSATYLCAVRWETSGSRLTFGEGTQLTVNP
V domain 2: DSGVTQTPKHLITATGQRVTLRCSPRSGDLSVYWYQQSLDQGLQFLIQYYNGEERAKGNILERFSAQQFPDLHSELNLSSLELGDSALYFCASSVGGGYEQYFGPGTRLTVTE
The molecule B1 gave a percent of T cells binding the MAGE-A3EVD-MHC-multimer in test [1] of 20%.

B2: TCR2 (TCR, V domains shown)
Valpha: B1 V domain 1
Vbeta: DSGVTQTPKHLITATGQRVTLRCSPRSGDLSVYWYQQSLDQGLQFLIQYYNGEERAKGNILERFSAQQFPDLHSELNLSSLELGDSALYFCASSVGGGYEQYFGPGTRLTVT
Turning to B2, the binding result is recorded as “no recognition” in test [2] and “recognises” in test [3].

B3: TCR3 (TCR, V domains shown)
Valpha: AQKVTQAQTEISVVEKEDVTLDCVYETRDTTYYLFWYKQPPSGELVFLIRRNSFDEQNEISGRYSWNFQKSTSSFNFTITASQVVDSAVYFCALSEALGYSSASKIIFGSGTRLSIRP
Vbeta: GAGVSQSPSNKVTEKGKDVELRCDPISGHTALYWYRQSLGQGLEFLIYFQGNSAPDKSGLPSDRFSAERTGGSVSTLTIQRTQQEDSAVYLCASSDPMSGAQETQYFGPGTRLLVL
Take B3: the binding result in test [2] is “no recognition”; in test [3] it was “recognises”.

B4: TCR1 (TCR, V domains shown)
Valpha: KQEVTQIPAALSVPEGENLVLNCSFTDSAIYNLQWFRQDPGKGLTSLLLIQSSQREQTSGRLNASLDKSSGRSTLYIAASQPGDSATYLCAVIEYGNKLVFGAGTILRVKS
Vbeta: DAMVIQNPRYQVTQFGKPVTLSCSQTLNHNVMYWYQQKSSQAPKLLFHYYDKDFNNEADTPDNFQSRRPNTSFCFLDIRSPGLGDAAMYLCATSWDRGYEQFFGPGTRLTVL
Take B4: the binding result in test [2] is on record as “no recognition”; in test [3], “recognises”.
